The source of these data is publication PMC4837458.

The subject of data set [1] is dPPR-4 (designed (synthetic; NTD/CTD from Zea mays PPR10)). Put plainly: EMSA. Conditions: 5 mM Mg2+; apparent Kd; EMSA: 25 mM Tris-HCl pH 8.0, 5 mM MgCl2, 5 mM DTT, 0.1 mg/ml BSA, 50 ng/ml heparin, 10% glycerol, ~2 nM 32P-RNA, 20 min on ice. (A gel shift assay detects complexes by their altered migration in electrophoresis.)
Data set [2] relates to dPPR-NN (designed (synthetic; NTD/CTD from Zea mays PPR10)). Put plainly: EMSA. Conditions: 5 mM Mg2+; apparent Kd; EMSA: 25 mM Tris-HCl pH 8.0, 5 mM MgCl2, 5 mM DTT, 0.1 mg/ml BSA, 50 ng/ml heparin, 10% glycerol, ~2 nM 32P-RNA, 20 min on ice.
Data set [3] relates to dPPR-U8A2 N318S;D348N;N353S;D383N (designed (synthetic; NTD/CTD from Zea mays PPR10)), PDB:5I9D_1. Put plainly: EMSA. Conditions: 5 mM Mg2+; apparent Kd; EMSA: 25 mM Tris-HCl pH 8.0, 5 mM MgCl2, 5 mM DTT, 0.1 mg/ml BSA, 50 ng/ml heparin, 10% glycerol, ~2 nM 32P-RNA, 20 min on ice.
Data set [4] relates to dPPR-TN (designed (synthetic; NTD/CTD from Zea mays PPR10)). Kind of data set: EMSA. The conditions noted are these: 5 mM Mg2+; apparent Kd; EMSA: 25 mM Tris-HCl pH 8.0, 5 mM MgCl2, 5 mM DTT, 0.1 mg/ml BSA, 50 ng/ml heparin, 10% glycerol, ~2 nM 32P-RNA, 20 min on ice.
In data set [5] the test system is T1, dPPR-U8C2 D348S;D383S (designed (synthetic; NTD/CTD from Zea mays PPR10)), PDB:5I9G_1.
T1 sequence: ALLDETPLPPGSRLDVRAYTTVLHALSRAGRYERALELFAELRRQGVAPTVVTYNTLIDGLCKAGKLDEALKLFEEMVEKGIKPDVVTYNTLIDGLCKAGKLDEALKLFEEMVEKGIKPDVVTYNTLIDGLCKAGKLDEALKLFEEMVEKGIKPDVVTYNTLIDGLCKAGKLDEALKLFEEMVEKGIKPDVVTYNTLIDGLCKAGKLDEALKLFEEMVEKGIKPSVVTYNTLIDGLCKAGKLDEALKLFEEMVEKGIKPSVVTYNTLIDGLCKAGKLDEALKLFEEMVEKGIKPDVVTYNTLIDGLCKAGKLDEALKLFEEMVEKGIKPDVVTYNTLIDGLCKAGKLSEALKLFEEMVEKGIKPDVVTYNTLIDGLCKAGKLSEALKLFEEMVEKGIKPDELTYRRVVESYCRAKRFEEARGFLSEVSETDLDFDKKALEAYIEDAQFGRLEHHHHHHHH
Put plainly: EMSA. Conditions: 5 mM Mg2+; apparent Kd; EMSA: 25 mM Tris-HCl pH 8.0, 5 mM MgCl2, 5 mM DTT, 0.1 mg/ml BSA, 50 ng/ml heparin, 10% glycerol, ~2 nM 32P-RNA, 20 min on ice.

Data set [6] relates to dPPR-SD (designed (synthetic; NTD/CTD from Zea mays PPR10)). Put plainly: EMSA. The conditions noted are these: 5 mM Mg2+; apparent Kd; EMSA: 25 mM Tris-HCl pH 8.0, 5 mM MgCl2, 5 mM DTT, 0.1 mg/ml BSA, 50 ng/ml heparin, 10% glycerol, ~2 nM 32P-RNA, 20 min on ice.
In data set [7] the test system is dPPR-U8G2 N318T;N353T (designed (synthetic; NTD/CTD from Zea mays PPR10)), PDB:5I9H_1. Kind of data set: EMSA. The conditions noted are these: 5 mM Mg2+; apparent Kd; EMSA: 25 mM Tris-HCl pH 8.0, 5 mM MgCl2, 5 mM DTT, 0.1 mg/ml BSA, 50 ng/ml heparin, 10% glycerol, ~2 nM 32P-RNA, 20 min on ice.
Data set [8] deals with T2, dPPR-U8C2 (designed (synthetic; NTD/CTD from Zea …, UniProt PDB:5I9G_1 1-460, D348S;D383S).
T2 sequence: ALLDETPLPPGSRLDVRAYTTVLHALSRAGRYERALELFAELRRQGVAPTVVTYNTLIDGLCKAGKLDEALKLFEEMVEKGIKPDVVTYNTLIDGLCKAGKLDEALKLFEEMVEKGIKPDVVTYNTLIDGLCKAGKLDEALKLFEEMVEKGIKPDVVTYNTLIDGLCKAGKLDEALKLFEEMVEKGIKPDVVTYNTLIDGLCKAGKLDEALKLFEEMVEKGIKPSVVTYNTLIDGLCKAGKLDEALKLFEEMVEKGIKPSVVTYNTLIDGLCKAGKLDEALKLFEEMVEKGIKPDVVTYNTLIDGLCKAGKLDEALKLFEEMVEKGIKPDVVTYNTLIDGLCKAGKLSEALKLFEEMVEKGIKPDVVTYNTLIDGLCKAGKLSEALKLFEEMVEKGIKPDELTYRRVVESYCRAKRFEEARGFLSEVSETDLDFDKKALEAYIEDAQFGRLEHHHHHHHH
Kind of data set: X-ray crystallography; 2.30 A; EMSA: 25 mM Tris-HCl pH 8.0, 5 mM MgCl2, 5 mM DTT, 0.1 mg/ml BSA, 50 ng/ml heparin, 10% glycerol, ~2 nM 32P-RNA, 20 min on ice.

For data set [9], the target named is T3, dPPR-U10 (designed (synthetic; NTD/CTD from Zea …, UniProt PDB:5I9F_1 1-460).
T3 chain: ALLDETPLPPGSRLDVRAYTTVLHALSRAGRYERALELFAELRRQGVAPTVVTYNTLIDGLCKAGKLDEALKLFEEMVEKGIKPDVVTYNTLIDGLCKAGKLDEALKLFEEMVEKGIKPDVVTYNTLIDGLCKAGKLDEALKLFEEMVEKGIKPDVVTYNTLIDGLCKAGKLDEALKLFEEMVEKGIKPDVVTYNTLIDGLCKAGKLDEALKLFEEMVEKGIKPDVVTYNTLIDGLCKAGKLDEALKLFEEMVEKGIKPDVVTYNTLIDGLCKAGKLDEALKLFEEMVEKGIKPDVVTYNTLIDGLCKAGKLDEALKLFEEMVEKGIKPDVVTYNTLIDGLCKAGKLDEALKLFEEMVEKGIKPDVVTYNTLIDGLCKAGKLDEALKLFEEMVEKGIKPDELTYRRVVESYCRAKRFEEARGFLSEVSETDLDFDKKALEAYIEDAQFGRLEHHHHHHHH
Put plainly: EMSA; 5 mM Mg2+; apparent Kd; EMSA: 25 mM Tris-HCl pH 8.0, 5 mM MgCl2, 5 mM DTT, 0.1 mg/ml BSA, 50 ng/ml heparin, 10% glycerol, ~2 nM 32P-RNA, 20 min on ice.

The target of data set [10] is T2, dPPR-U8C2. Put plainly: EMSA; C5,C6 to U; EMSA: 25 mM Tris-HCl pH 8.0, 5 mM MgCl2, 5 mM DTT, 0.1 mg/ml BSA, 50 ng/ml heparin, 10% glycerol, ~2 nM 32P-RNA, 20 min on ice.
In data set [11] the target is T3, dPPR-U10. Kind of data set: X-ray crystallography; 2.20 A; EMSA: 25 mM Tris-HCl pH 8.0, 5 mM MgCl2, 5 mM DTT, 0.1 mg/ml BSA, 50 ng/ml heparin, 10% glycerol, ~2 nM 32P-RNA, 20 min on ice.

For UUCCAGAU [dPPR-4 target], the Kd in data set [1] was 24.6 nM. With UUUUUUUUUU [U10 target], in data set [2], the Kd stood at 15.9 nM. For UUUUAAUUUU [U8A2 target], the Kd stood at 23.8 nM in [3] and 58.9 nM in data set [4].

With UUUUCCUUUU [U8C2 target], the Kd in data set [2] turned out to be 14.6 nM; in [5] it was 18.5 nM. Turning to UUUUGGUUUU [U8G2 target], the results for the Kd in data set [6] and in data set [7] were 31.1 nM and 29.8 nM, respectively. In the case of GGGGUUUUCCUUUUCCCC (ssRNA) [18-nt U8C2 crystal RNA], the binding result with dPPR-U8C2 [8] was “binds”. As to UUUUUUUUUU (ssRNA) [U10 target], the Kd with dPPR-U10 [9] stood at 74.3 ± 7.9 nM. In the data set with dPPR-U8C2 [10], the binding result is listed as “no binding”. For the molecule GGGGUUUUUUUUUUCCCC (ssRNA) [18-nt U10 crystal RNA], the binding result in the data set with dPPR-U10 [11] is on record as “binds”.
